No end group written: not given here.
B1: 2AcK (peptide)
chain: K(Ac)LLK(Ac)HLYH

Legend:
BRD4-BD1 42-168 = BRD4-BD1 42-168 (Homo sapiens, UniProt O60885); experiment: SPR
2AcK [1] = target: B1; experiment: SPR
2AcK [2] = target: B1; experiment: ITC

B1
Kd (BRD4-BD1 42-168): 1 µM

B2: BRD2-BD1 65-194 (protein)
chain: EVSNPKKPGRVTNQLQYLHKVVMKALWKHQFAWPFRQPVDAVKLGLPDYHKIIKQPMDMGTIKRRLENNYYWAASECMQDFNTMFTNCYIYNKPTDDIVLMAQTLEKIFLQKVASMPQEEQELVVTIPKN
Kd (2AcK [1]): 2 µM

B3: BRD3-BD1 25-147 (protein)
chain: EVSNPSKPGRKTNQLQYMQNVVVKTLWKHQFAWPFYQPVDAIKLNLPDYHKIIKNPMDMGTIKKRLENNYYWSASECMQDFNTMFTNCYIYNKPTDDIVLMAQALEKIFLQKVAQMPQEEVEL
Kd (2AcK [2]): 10 µM
Kd (2AcK [1]): 2 µM
